What all share (test): SPR, antibody captured, C2 as analyte;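 further: biacore at 37 °C, anti-C2 mAbs held by immobilised goat anti-human IgG, C2 alanine or serine mutants injected, double-referenced sensorgrams fitted to a 1:1 kinetic or steady-state model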
(In general: SPR reads the build-up and loss of mass on a sensor chip optically.)

In one test the target is T1, human C2 H435A (human, UniProt P06681 21-752).
T1 sequence: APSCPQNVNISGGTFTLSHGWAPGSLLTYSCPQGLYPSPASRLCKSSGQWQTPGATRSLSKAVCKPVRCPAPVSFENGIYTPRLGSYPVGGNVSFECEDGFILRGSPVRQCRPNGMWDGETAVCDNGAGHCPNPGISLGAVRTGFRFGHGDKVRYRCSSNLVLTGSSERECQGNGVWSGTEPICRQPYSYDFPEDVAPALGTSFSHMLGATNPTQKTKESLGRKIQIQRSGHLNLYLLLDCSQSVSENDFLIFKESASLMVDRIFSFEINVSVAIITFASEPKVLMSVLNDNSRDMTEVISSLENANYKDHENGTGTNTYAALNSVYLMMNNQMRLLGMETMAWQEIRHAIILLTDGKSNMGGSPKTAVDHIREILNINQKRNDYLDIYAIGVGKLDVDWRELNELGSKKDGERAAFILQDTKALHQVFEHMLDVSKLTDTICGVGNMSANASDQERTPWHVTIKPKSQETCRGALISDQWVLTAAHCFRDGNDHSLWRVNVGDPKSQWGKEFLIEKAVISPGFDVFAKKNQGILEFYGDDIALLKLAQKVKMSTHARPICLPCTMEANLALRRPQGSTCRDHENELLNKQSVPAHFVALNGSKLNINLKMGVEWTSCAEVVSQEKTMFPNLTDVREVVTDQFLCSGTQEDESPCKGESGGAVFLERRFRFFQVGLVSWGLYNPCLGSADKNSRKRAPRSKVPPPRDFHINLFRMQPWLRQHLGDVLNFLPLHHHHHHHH

The target in another test is T2, human C2 S428A (human, UniProt P06681 21-752).
T2 sequence: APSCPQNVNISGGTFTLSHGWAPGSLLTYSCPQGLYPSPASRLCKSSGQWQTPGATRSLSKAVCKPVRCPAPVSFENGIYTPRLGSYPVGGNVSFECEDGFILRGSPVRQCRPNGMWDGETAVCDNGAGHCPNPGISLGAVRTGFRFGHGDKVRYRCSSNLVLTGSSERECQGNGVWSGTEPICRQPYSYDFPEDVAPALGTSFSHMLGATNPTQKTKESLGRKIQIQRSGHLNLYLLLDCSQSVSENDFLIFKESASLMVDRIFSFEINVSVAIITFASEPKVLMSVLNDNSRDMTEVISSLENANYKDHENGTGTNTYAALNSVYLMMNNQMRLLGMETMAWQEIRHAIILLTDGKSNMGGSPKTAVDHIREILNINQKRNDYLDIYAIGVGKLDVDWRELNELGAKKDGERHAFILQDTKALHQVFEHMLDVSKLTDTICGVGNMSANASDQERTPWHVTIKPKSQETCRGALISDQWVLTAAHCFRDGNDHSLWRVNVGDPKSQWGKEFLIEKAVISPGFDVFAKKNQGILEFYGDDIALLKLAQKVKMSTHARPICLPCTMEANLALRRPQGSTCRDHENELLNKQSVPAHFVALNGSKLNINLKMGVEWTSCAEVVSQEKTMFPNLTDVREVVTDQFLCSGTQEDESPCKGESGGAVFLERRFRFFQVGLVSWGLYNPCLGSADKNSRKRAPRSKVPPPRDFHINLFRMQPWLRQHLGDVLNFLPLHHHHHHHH

The target of the next test is T3, human C2 R519A (human, UniProt P06681 21-752).
T3 sequence: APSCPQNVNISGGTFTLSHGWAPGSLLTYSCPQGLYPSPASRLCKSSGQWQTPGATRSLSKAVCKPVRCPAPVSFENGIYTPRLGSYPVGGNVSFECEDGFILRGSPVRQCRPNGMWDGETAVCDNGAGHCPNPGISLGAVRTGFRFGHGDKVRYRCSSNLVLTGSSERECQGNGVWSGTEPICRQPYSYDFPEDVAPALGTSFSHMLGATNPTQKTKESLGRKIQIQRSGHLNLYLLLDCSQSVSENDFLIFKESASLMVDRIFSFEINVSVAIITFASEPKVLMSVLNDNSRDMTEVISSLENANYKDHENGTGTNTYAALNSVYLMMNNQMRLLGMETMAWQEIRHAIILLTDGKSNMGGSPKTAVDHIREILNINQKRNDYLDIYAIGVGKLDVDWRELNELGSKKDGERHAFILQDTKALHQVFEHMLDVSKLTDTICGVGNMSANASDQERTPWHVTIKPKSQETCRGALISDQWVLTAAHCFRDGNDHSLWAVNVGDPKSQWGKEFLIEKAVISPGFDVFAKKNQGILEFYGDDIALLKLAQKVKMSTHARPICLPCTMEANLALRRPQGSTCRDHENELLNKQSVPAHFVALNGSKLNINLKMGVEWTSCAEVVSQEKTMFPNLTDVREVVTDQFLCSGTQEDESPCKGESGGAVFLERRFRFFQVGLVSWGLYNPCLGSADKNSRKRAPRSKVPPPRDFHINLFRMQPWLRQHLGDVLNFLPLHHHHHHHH

A further test has as its target T4, human C2 E476A (human, UniProt P06681 21-752).
T4 sequence: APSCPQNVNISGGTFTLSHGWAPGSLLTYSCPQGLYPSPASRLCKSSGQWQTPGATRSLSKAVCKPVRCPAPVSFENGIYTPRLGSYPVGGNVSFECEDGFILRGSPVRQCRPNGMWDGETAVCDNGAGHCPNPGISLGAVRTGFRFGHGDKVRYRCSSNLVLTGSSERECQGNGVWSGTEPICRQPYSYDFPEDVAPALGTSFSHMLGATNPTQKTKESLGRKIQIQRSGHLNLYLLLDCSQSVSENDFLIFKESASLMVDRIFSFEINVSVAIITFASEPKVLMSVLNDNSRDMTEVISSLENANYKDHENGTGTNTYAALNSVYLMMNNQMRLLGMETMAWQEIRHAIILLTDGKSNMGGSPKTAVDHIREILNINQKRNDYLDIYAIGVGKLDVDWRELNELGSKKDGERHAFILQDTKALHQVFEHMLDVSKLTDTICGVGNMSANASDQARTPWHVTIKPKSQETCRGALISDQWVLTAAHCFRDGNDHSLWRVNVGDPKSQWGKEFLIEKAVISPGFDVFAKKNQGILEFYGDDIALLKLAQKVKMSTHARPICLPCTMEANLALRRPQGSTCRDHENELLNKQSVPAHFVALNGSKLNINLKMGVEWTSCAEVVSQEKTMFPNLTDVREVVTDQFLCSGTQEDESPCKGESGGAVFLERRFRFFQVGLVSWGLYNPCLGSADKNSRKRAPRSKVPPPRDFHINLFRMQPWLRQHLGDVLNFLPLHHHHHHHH

The results in this text go back to patent publication US20220332804A1 (CSL INNOVATION, published 2022).

B1: RF16-242 (antibody, human IgG4 S228P, lambda, V domains shown)
VH: EVQLLQSGAEVKKPGESLKISCKGSGYSFTSYWIGWVRQMPGKGLEWMGIIYPGDSDTRYSPSFQGQVTISADKSISTAYLQWSSLKASDTAMYYCARRGHYGDYFDYWGQGTLVTVSS
VL: SYELTQPPSVSVSPGQTARITCSGDALPKKYAYWYHQKSGQAPVLVIYEDRRRPSEIPERFSGSSSGTMATLTITGAQVEDEGVYFCYSRDRAGNQRVFGGGTQLTVLG
notes: pH-dependent anti-C2 antibody from a phage display library
As a reminder, the Kd is the equilibrium constant for the complex coming apart. For the molecule B1, the Kd is 62.5 nM with human C2 H435A, 18.6 nM with human C2 S428A, 7.6 nM in the test with human C2 R519A and 14 nM with human C2 E476A.
